Values of other authors in patent publication US20190351003A1, “METHODS FOR INHIBITING NONALCOHOLIC STEATOHEPATITIS, NONALCOHOLIC FATTY LIVER DISEASE, AND/OR DE NOVO LIPOGENESIS” (The Regents of the University of California, priority 2017, published 2019).
Where no end group is shown, it is not given here. The star is where a group is joined. CH2F = FC*

Biological target: T1, caspase-2 (Homo sapiens, UniProt P42575)
T1 sequence (P42575 1-452): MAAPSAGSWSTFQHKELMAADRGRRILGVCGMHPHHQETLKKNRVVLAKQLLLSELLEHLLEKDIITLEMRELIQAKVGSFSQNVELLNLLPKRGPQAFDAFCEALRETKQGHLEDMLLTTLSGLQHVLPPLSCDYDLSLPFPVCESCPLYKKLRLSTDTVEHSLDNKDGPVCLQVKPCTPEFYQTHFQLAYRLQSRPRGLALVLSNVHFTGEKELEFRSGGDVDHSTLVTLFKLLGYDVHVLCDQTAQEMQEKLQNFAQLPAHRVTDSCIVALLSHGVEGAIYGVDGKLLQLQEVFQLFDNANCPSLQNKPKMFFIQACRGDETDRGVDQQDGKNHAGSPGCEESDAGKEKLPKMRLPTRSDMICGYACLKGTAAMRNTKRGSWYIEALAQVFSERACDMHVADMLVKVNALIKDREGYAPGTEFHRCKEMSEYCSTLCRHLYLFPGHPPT
Conditions: cell-permeable peptide; fluoromethylketone derivative; cited from earlier work

In the case of “VDVAD (VDVAD-CH2F) [available as a fluoromethylketone derivative]”, the “activity of caspase-2” value is listed as “irreversibly inhibits”.
